According to patent publication US20120021972A1 (CADILA HEALTHCARE, published 2012):
Starred links: 1 amine or outer side, 2 acyl side, 3 side chain; linkers in the order of their positions; H or OH if unused. Non-standard residues stand in square brackets, D forms with d. No end group written: not given here. *: point of attachment. NMe2F‑APPA = N-methyl-2-amino-5-(2-fluorophenyl)pentanoic acid, CN([C@@H](CCCc1ccccc1F)C(=O)[*:2])[*:1]; AMCB = 2-amino-5-(4-chloro-2-methylphenyl)pentanoic acid, Cc1cc(Cl)ccc1CCC[C@H](N[*:1])C(=O)[*:2]; 2CF3,4F‑APPA = 2-amino-5-(4-fluoro-2-(trifluoromethyl)phenyl)pentanoic acid; 2F,4CF3‑APPA = 2-amino-5-(2-fluoro-4-(trifluoromethyl)phenyl)pentanoic acid; Bip(2'-Et-4'-OMe) = CCc1cc(OC)ccc1-c1ccc(C[C@H](N)C(=O)O)cc1; Leu(5,5,5,5',5',5'-F6) = N[C@@H](CC(C(F)(F)F)C(F)(F)F)C(=O)O; 2Cl‑APPA = 2-amino-5-(2-chlorophenyl)pentanoic acid; 2F‑APPA = 2-amino-5-(2-fluorophenyl)pentanoic acid; αMePhe(2-F) = C[C@](N)(Cc1ccccc1F)C(=O)O; NMeBip(OMe) = N-methylated Bip(OMe); hhPhe = N[C@@H](CCCc1ccccc1)C(=O)O; NMeD = CN[C@@H](CC(=O)O)C(=O)O; aThr = C[C@H](O)[C@H](N)C(=O)O; NMeAPPA = not defined here; CNB = not defined here; Aib = CC(C)(N)C(=O)O; Moc = COC(=O)*

Legend:
human GLP-1 receptor = human GLP-1 receptor (human, UniProt P43220 24-463); experiment: cell-based or functional assay
Chain of human GLP-1 receptor (P43220 24-463): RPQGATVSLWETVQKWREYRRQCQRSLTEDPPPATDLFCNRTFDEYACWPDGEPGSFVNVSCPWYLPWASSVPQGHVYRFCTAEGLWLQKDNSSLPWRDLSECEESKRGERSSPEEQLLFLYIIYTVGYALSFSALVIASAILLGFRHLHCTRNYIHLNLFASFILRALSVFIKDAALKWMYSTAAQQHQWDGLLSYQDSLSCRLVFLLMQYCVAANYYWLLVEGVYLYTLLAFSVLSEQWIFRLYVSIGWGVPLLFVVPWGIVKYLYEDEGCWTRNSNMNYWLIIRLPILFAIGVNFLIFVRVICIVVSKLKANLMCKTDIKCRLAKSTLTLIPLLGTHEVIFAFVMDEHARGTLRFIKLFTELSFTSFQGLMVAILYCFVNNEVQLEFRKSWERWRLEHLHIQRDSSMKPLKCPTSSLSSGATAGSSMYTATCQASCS

human glucagon receptor = human glucagon receptor (human, UniProt P47871 26-477); experiment: cell-based or functional assay

Binder	cAMP release, % activity, 1 nM (human GLP-1 receptor)	cAMP release, % activity, 10 nM (human GLP-1 receptor)	cAMP release, % activity, 100 nM (human GLP-1 receptor)	cAMP release, % activity, 1 µM (human GLP-1 receptor)	cAMP release, % activity, 10 µM (human GLP-1 receptor)	inhibition of cAMP production, 1 nM (human glucagon receptor)	inhibition of cAMP production, 10 nM (human glucagon receptor)	inhibition of cAMP production, 100 nM (human glucagon receptor)	inhibition of cAMP production, 1 µM (human glucagon receptor)	inhibition of cAMP production, 10 µM (human glucagon receptor)
HAQGTFTSD[Bip(2'-Et-4'-OMe)][AMCB] [Seq. ID. No. 16: HAQGTFTSD-Bip(OMe)-(AMCB)]	99%	99%	99%	99%	99%	–	–	–	–	–
H[Aib][CNB]GTFTSD[Bip(2'-Et-4'-OMe)][2F,4CF3‑APPA] (reading uncertain) [Seq. ID. No. 81: H-Aib-(CNB)-GTFTSD-Bip(OMe)-(2F, 4CF3-APPA)]	69%	98%	99%	99%	99%	–	–	–	–	–
H[Aib][CNB]GTFTSD[Bip(2'-Et-4'-OMe)][2Cl‑APPA] (reading uncertain) [Seq. ID. No. 82: H-Aib-(CNB)-GTFTSD-Bip(OMe)-(2Cl-APPA)]	78%	99%	99%	99%	99%	–	–	–	–	–
Moc-H[Aib]QGT[αMePhe(2-F)]TSD[Bip(2'-Et-4'-OMe)][hhPhe] (also: thioamide bonds between residues 9-10 and 10-11) [Seq. ID. No. 170: CH3OCO-H-Aib-QGT-(α-Me-2F-Phe)-TSD-(C═S)-Bip(OMe)-(C═S)-(APPA)]	–	–	–	–	–	6 pmol/ml/µg prt	5 pmol/ml/µg prt	2 pmol/ml/µg prt	0 pmol/ml/µg prt	0 pmol/ml/µg prt
Moc-H[Aib]QGT[αMePhe(2-F)]TSD[Bip(2'-Et-4'-OMe)][2F‑APPA] (also: thioamide bonds between residues 9-10 and 10-11) [Seq. ID. No. 172: CH3OCO-H-Aib-QGT-(α-Me-2F-Phe)-TSD-(C═S)-Bip(OMe)-(C═S)-(2F-APPA)]	–	–	–	–	–	4 pmol/ml/µg prt	2 pmol/ml/µg prt	0 pmol/ml/µg prt	0 pmol/ml/µg prt	0 pmol/ml/µg prt
H[Aib][CNB]GTFTSD[Bip(2'-Et-4'-OMe)][2CF3,4F‑APPA] (reading uncertain) [Seq. ID. No. 80: H-Aib-(CNB)-GTFTSD-Bip(OMe)-(2CF3, 4F-APPA)]	66%	97%	99%	99%	99%	–	–	–	–	–
H[Aib]QG[aThr][αMePhe(2-F)][aThr]SD[Bip(2'-Et-4'-OMe)][hhPhe] (also: thioamide bonds between residues 9-10 and 10-11) [Seq. ID. No. 177: H-Aib-QG-T(allo)-(α-Me-2F-Phe)-T(allo)-SD-(C═S)-Bip(OMe)-(C═S)-(APPA)]	–	–	–	–	–	0 pmol/ml/µg prt	0 pmol/ml/µg prt	0 pmol/ml/µg prt	0 pmol/ml/µg prt	0 pmol/ml/µg prt
H[Aib]QG[aThr][αMePhe(2-F)][aThr]SD[Bip(2'-Et-4'-OMe)][hhPhe] (also: reduced (CH2) bond between 10 and 11) [Seq. ID. No. 189: H-Aib-QG-T(allo)-(α-Me-2F-Phe)-T(allo)-SD-Bip(OMe)-(CH2)-(APPA)]	–	–	–	–	–	3 pmol/ml/µg prt	1 pmol/ml/µg prt	0 pmol/ml/µg prt	0 pmol/ml/µg prt	0 pmol/ml/µg prt
Ac-H[Aib]QGT[αMePhe(2-F)]TSD[Bip(2'-Et-4'-OMe)][2F‑APPA] (also: reduced (CH2) bonds between 9-10 and 10-11) [Seq. ID. No. 195: CH3CO-H-Aib-QGT-(α-Me-2F-Phe)-TSD-(CH2)-Bip(OMe)-(CH2)-(2F-APPA)]	–	–	–	–	–	15 pmol/ml/µg prt	12 pmol/ml/µg prt	8 pmol/ml/µg prt	4 pmol/ml/µg prt	2 pmol/ml/µg prt
Ac-H[Aib]QG[aThr][αMePhe(2-F)][aThr]SD[Bip(2'-Et-4'-OMe)][hhPhe] (also: reduced (CH2) bonds between 9-10 and 10-11) [Seq. ID. No. 197: CH3CO-H-Aib-QG-T(allo)-(α-Me-2F-Phe)-T(allo)-SD-(CH2)-Bip(OMe)-(CH2)-(APPA)]	–	–	–	–	–	14 pmol/ml/µg prt	11 pmol/ml/µg prt	7 pmol/ml/µg prt	3 pmol/ml/µg prt	0 pmol/ml/µg prt
Moc-H[Aib]QG[aThr][αMePhe(2-F)][aThr]SD[Bip(2'-Et-4'-OMe)][2F‑APPA] (also: reduced (CH2) bond between 10 and 11) [Seq. ID. No. 188: CH3OCO-H-Aib-QG-T(allo)-(α-Me-2F-Phe)-T(allo)-SD-Bip(OMe)-(CH2)-(2F-APPA)]	–	–	–	–	–	5 pmol/ml/µg prt	3 pmol/ml/µg prt	1 pmol/ml/µg prt	0 pmol/ml/µg prt	0 pmol/ml/µg prt
Moc-H[Aib]QG[aThr][αMePhe(2-F)][aThr]SD[NMeBip(OMe)][NMe2F‑APPA] [Seq. ID. No. 140: CH3OCO-H-Aib-QG-T(allo)-(α-Me-2F-Phe)-T(allo)-SD-((NMe)Bip(OMe))-((NMe)(2F-APPA))]	51%	86%	91%	99%	99%	–	–	–	–	–
Moc-H[Aib][CNB]GT[αMePhe(2-F)]TSD[Bip(2'-Et-4'-OMe)][2F‑APPA] (reading uncertain) [Seq. ID. No. 208: CH3OCO-H-Aib-(CNB)-GT-(α-Me-2F-Phe)-TSD-Bip(OMe)-(2F-APPA)]	–	–	–	–	–	5 pmol/ml/µg prt	3 pmol/ml/µg prt	1 pmol/ml/µg prt	0 pmol/ml/µg prt	0 pmol/ml/µg prt
Ac-H[Aib]QG[aThr][αMePhe(2-F)][aThr]SD[Bip(2'-Et-4'-OMe)][hhPhe] (also: reduced (CH2) bond between 10 and 11) [Seq. ID. No. 185: CH3CO-H-Aib-QG-T(allo)-(α-Me-2F-Phe)-T(allo)-SD-Bip(OMe)-(CH2)-(APPA)]	46%	85%	90%	99%	99%	–	–	–	–	–
Ac-H[Aib]QG[aThr][αMePhe(2-F)][aThr]SD[Bip(2'-Et-4'-OMe)][2F‑APPA] (also: reduced (CH2) bonds between 9-10 and 10-11) [Seq. ID. No. 199: CH3CO-H-Aib-QG-T(allo)-(α-Me-2F-Phe)-T(allo)-SD-(CH2)-Bip(OMe)-(CH2)-(2F-APPA)]	–	–	–	–	–	4 pmol/ml/µg prt	3 pmol/ml/µg prt	0 pmol/ml/µg prt	0 pmol/ml/µg prt	0 pmol/ml/µg prt
Moc-H[Aib]QG[aThr][αMePhe(2-F)][aThr]S[NMeD][NMeBip(OMe)][NMeAPPA] (reading uncertain)	–	–	–	–	–	10 pmol/ml/µg prt	8 pmol/ml/µg prt	6 pmol/ml/µg prt	4 pmol/ml/µg prt	1 pmol/ml/µg prt
H[Aib][CNB]G[aThr][αMePhe(2-F)][aThr]SD[Bip(2'-Et-4'-OMe)][2F‑APPA] (reading uncertain; also: reduced (CH2) bond between 10 and 11) [Seq. ID. No. 192: H-Aib-(CNB)-G-T(allo)-(α-Me-2F-Phe)-T(allo)-SD-Bip(OMe)-(CH2)-(2F-APPA)]	–	–	–	–	–	4 pmol/ml/µg prt	2 pmol/ml/µg prt	0 pmol/ml/µg prt	0 pmol/ml/µg prt	0 pmol/ml/µg prt
H[Aib][CNB]G[aThr][αMePhe(2-F)][aThr]SD[Bip(2'-Et-4'-OMe)][2F‑APPA] (reading uncertain; also: thioamide bonds between residues 9-10 and 10-11) [Seq. ID. No. 180: H-Aib-(CNB)-G-T(allo)-(α-Me-2F-Phe)-T(allo)-SD-(C═S)-Bip(OMe)-(C═S)-(2F-APPA)]	40%	81%	89%	96%	99%	–	–	–	–	–
H[Aib][Leu(5,5,5,5',5',5'-F6)]G[aThr][αMePhe(2-F)][aThr]SD[Bip(2'-Et-4'-OMe)][2F‑APPA] (also: thioamide (C═S) bond Z10-Z11) [Seq. ID. No. 218: H-Aib-(Hfl)-G-T(allo)-(α-Me-2F-Phe)-T(allo)-SD-Bip(OMe)-(C═S)-(2F-APPA)]	–	–	–	–	–	9 pmol/ml/µg prt	6 pmol/ml/µg prt	5 pmol/ml/µg prt	3 pmol/ml/µg prt	0 pmol/ml/µg prt
Ac-H[Aib]QG[aThr][αMePhe(2-F)][aThr]SD[Bip(2'-Et-4'-OMe)][hhPhe] [Seq. ID. No. 101: CH3CO-H-Aib-QG-T(allo)-(α-Me-2F-Phe)-T(allo)-SD-Bip(OMe)-(APPA)]	41%	82%	87%	95%	98%	–	–	–	–	–
H[Aib][CNB]G[aThr][αMePhe(2-F)][aThr]SD[Bip(2'-Et-4'-OMe)][hhPhe] (reading uncertain; also: reduced (CH2) bond between 10 and 11) [Seq. ID. No. 190: H-Aib-(CNB)-G-T(allo)-(α-Me-2F-Phe)-T(allo)-SD-Bip(OMe)-(CH2)-(APPA)]	41%	82%	87%	95%	98%	–	–	–	–	–
H[Aib][Leu(5,5,5,5',5',5'-F6)]GT[αMePhe(2-F)][aThr]SD[Bip(2'-Et-4'-OMe)][hhPhe] [Seq. ID. No. 225: H-Aib-(Hfl)-GT-(α-Me-2F-Phe)-T(allo)-SD-Bip(OMe)-(APPA)]	–	–	–	–	–	5 pmol/ml/µg prt	2 pmol/ml/µg prt	0 pmol/ml/µg prt	0 pmol/ml/µg prt	0 pmol/ml/µg prt
H[Aib]QG[aThr][αMePhe(2-F)][aThr]SD[Bip(2'-Et-4'-OMe)][2F‑APPA] (also: reduced (CH2) bond between 10 and 11) [Seq. ID. No. 191: H-Aib-QG-T(allo)-(α-Me-2F-Phe)-T(allo)-SD-Bip(OMe)-(CH2)-(2F-APPA)]	–	–	–	–	–	4 pmol/ml/µg prt	2 pmol/ml/µg prt	2 pmol/ml/µg prt	0 pmol/ml/µg prt	0 pmol/ml/µg prt
Ac-H[Aib][Leu(5,5,5,5',5',5'-F6)]GT[αMePhe(2-F)]TSD[Bip(2'-Et-4'-OMe)][2F‑APPA] [Seq. ID. No. 212: CH3CO-H-Aib-(Hfl)-GT-(α-Me-2F-Phe)-TSD-Bip(OMe)-(2F-APPA)]	–	–	–	–	–	10 pmol/ml/µg prt	8 pmol/ml/µg prt	6 pmol/ml/µg prt	4 pmol/ml/µg prt	1 pmol/ml/µg prt
